Assay [1] has as its target T1, Unr CSD78 (A756-K922) (Drosophila, UniProt B7Z0E2 756-922).
T1 sequence (looked up): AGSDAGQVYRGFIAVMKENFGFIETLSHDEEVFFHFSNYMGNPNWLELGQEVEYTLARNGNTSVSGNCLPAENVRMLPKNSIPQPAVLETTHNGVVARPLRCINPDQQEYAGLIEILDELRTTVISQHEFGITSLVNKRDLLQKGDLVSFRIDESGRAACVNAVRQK
In words: NMR titration.

In assay [2] the target is T2, Unr CSD789 (A756-D990) (Drosophila, UniProt B7Z0E2 756-990).
T2 sequence (looked up): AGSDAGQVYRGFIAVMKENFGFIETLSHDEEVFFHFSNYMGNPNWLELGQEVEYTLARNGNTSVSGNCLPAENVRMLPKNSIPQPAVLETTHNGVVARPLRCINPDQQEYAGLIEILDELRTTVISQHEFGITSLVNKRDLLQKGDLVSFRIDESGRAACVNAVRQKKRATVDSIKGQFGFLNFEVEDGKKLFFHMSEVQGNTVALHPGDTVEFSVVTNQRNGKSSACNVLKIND
The experiment in a line: NMR titration.

This note sets out measurements from publication doi:10.1101/2022.11.26.518022 (bioRxiv, 2022).

B1: pAbp RRM3 (G176-A263) (domain or fragment)
chain: not shown
In the case of B1, the binding result in assay [1] and in assay [2] was “binds” throughout.
